Drawing on the supplement of paper PMC10065799, “High-throughput profiling of sequence recognition by tyrosine kinases and SH2 domains using bacterial peptide display” (eLife, 2023), this text covers SH2 binding enrichment and phosphorylation enrichment for eight sequences.

The target in one data set is c-Src SH2. Description: SH2 binding enrichment of the phosphorylated peptide, bacterial display (enrichment ratio); higher = better substrate or ligand; peptides without Tyr show the background.
For a further data set, the target named is Grb2 SH2 (UniProt P62993). The description is as above.
The target in another data set is SHP2-C SH2. Described as above.
A further data set deals with Fer (mouse). Description: phosphorylation enrichment, bacterial display (enrichment ratio); higher = better substrate or ligand; peptides without Tyr show the background.
A further data set concerns the target EPHB2 (UniProt P29323). The description is as above.
For a further data set, the target named is Fyn (UniProt P06241). Described as above.
The next data set addresses MERTK (UniProt Q12866). The data set is described as above.
The subject of the next data set is c-Src. Described as above.
The next data set concerns c-Abl (mouse). Described as above.
A further data set has as its target FGFR3 (UniProt P22607). The description is as above.
Another data set has as its target Jak2 (UniProt O60674). Described as above.
The target of a further data set is Fes (UniProt P07332). Described as above.
A further data set deals with Hck (UniProt P08631). The description is as above.
The target of another data set is EPHB1 (UniProt P54762). The description is as above.
In a further data set the test system is AncSZ. The description is as above.
The target in another data set is FGFR1 (UniProt P11362). The data set is described as above.
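For SH2 binding enrichment of the phosphorylated peptide, bacterial display in this document: peptide library displayed on the E. coli surface as eCPX fusions, selected cells deep-sequenced, score is each peptide's frequency after selection divided by its frequency in the input.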
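For phosphorylation enrichment, bacterial display in this document: 11-residue human phosphosite peptides and single-mutation variants displayed on the E. coli surface, counted by deep sequencing, each peptide's frequency after selection divided by its frequency in the unselected input library; frequency after pTyr selection over input frequency; kinase dosed for 20-30% of maximal phosphorylation in three min.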

Chain of FGFR3 (P22607 whole entry, looked up): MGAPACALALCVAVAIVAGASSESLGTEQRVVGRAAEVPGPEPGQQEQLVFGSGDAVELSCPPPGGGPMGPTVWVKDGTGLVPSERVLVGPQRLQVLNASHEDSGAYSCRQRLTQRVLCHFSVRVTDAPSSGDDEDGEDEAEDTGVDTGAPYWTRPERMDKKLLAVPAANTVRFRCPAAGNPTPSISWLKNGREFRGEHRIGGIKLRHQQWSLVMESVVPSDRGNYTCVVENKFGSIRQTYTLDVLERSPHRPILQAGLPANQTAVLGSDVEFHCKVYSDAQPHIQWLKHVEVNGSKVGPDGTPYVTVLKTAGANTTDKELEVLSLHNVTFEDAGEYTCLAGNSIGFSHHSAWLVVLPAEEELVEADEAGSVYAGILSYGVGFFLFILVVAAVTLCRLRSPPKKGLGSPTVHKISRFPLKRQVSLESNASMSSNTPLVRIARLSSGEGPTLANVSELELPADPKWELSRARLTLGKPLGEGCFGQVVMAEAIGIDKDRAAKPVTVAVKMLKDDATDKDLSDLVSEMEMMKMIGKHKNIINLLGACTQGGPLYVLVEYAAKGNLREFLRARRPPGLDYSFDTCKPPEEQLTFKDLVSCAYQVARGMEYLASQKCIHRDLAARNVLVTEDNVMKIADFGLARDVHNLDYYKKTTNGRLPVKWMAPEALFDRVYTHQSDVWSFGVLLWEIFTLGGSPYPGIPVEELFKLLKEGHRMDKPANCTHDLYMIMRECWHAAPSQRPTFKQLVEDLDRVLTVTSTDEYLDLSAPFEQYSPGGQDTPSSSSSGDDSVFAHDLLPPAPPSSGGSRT
Chain of MERTK (Q12866 whole entry, looked up): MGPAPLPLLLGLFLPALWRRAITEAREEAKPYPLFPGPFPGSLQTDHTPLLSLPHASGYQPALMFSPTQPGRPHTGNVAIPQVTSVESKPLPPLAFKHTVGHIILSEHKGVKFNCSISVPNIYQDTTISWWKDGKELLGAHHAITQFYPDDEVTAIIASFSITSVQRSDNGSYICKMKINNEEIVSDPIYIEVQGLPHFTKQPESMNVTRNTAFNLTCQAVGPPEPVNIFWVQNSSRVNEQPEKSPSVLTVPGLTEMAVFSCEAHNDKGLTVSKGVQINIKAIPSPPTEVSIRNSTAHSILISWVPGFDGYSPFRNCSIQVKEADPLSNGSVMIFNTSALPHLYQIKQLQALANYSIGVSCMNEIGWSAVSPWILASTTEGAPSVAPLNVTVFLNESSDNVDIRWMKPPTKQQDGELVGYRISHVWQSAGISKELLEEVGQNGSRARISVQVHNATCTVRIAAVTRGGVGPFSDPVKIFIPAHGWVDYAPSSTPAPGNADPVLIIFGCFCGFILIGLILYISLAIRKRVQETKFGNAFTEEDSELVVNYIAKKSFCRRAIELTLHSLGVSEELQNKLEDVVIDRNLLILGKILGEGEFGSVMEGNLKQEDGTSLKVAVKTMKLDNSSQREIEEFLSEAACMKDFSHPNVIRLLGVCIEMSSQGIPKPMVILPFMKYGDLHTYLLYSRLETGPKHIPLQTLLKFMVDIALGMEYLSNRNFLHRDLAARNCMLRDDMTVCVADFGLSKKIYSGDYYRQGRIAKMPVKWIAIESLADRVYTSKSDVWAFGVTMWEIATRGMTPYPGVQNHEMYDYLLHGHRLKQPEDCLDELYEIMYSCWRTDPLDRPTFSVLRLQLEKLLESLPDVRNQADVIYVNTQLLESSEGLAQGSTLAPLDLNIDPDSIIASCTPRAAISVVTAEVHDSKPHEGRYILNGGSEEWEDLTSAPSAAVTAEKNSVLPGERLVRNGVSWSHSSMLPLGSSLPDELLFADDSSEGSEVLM
Chain of Fes (P07332 whole entry, looked up): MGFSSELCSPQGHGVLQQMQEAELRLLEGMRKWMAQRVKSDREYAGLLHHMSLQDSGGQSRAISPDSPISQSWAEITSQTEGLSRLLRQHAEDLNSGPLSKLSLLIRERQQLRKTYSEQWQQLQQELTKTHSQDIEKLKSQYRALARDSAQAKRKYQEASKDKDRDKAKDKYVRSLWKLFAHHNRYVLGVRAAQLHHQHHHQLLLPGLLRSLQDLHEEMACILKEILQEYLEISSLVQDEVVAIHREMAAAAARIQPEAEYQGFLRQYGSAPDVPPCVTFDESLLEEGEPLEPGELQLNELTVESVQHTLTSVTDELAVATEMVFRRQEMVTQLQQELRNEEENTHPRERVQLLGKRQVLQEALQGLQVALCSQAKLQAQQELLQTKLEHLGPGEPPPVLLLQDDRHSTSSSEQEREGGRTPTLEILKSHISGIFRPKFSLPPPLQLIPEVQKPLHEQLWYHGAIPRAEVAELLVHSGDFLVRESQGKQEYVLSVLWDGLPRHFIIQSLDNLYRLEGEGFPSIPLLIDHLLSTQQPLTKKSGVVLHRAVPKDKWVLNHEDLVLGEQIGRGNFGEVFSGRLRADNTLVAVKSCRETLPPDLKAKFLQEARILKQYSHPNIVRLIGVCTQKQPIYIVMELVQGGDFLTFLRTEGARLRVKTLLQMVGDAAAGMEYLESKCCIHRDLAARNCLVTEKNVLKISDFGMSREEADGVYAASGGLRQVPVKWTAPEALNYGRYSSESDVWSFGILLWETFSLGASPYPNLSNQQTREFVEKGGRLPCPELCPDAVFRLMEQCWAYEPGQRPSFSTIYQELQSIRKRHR
Chain of Jak2 (O60674 whole entry, looked up): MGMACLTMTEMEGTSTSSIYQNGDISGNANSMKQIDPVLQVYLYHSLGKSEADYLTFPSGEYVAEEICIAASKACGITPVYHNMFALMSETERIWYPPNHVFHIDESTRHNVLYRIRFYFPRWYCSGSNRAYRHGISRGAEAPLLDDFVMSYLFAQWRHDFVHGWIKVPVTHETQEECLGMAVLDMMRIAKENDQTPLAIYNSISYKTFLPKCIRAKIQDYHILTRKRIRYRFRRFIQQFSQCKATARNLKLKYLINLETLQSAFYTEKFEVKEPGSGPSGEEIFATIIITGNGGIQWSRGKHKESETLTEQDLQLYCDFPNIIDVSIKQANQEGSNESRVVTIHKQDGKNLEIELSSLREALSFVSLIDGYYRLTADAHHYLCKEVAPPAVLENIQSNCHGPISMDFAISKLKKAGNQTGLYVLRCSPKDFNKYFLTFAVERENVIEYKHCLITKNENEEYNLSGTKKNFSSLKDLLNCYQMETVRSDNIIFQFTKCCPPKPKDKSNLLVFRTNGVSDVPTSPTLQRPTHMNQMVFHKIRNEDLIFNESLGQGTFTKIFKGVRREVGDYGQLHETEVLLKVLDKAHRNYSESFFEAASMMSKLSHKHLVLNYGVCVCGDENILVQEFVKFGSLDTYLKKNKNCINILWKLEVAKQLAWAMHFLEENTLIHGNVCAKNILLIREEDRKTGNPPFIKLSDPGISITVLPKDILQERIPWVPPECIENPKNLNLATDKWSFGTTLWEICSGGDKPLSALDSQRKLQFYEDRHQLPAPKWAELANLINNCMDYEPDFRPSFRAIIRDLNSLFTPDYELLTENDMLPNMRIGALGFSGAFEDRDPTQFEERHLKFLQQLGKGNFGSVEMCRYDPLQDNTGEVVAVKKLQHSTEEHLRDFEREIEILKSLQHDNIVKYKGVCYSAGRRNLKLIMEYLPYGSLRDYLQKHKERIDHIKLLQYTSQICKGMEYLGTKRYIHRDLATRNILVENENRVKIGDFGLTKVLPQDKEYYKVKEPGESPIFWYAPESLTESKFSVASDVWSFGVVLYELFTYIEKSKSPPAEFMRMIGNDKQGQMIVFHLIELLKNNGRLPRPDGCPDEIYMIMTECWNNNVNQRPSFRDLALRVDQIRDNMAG
Chain of EPHB2 (P29323 whole entry, looked up): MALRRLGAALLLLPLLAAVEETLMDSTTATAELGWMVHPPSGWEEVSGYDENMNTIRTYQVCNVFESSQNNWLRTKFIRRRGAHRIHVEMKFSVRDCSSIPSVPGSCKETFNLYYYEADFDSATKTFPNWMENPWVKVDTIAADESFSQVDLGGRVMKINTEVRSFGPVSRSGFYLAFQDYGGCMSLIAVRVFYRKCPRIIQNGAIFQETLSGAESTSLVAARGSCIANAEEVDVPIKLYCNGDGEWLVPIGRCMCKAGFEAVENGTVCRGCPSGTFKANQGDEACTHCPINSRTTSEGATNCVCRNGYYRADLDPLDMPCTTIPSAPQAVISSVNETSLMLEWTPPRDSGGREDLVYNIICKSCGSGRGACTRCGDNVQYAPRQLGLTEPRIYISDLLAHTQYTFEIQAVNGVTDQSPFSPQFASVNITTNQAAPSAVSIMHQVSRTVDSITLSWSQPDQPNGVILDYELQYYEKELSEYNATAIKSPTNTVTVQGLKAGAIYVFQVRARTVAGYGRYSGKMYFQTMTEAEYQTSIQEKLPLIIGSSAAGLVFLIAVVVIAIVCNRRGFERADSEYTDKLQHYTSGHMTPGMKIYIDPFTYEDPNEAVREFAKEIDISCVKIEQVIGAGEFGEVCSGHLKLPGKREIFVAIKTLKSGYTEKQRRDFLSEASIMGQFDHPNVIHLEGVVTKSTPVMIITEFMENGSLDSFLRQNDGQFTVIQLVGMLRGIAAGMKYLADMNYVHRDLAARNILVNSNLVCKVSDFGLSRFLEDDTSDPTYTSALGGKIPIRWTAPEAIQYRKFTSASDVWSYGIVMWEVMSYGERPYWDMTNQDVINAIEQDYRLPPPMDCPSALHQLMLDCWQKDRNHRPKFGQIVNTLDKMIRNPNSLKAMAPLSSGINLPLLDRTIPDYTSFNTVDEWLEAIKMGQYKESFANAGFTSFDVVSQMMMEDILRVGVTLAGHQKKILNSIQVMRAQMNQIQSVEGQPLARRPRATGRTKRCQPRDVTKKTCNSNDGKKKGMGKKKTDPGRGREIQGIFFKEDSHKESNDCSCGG
Chain of Grb2 SH2 (P62993 whole entry, looked up): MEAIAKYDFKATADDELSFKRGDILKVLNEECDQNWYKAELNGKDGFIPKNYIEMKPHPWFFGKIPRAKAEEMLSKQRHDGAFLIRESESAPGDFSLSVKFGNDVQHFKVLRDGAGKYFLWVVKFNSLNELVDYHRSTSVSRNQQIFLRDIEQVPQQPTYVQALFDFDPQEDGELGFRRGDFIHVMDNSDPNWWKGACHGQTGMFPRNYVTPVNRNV

Turning to ELCSEYRKSRK [SPINK5_Y440], the SH2 binding enrichment with c-Src SH2 was determined as 0.484; with Grb2 SH2, 1.03; with SHP2-C SH2, 0.726. Further, the phosphorylation enrichment came out at 0.457 in the data set on Fer (mouse); 0.489 with EPHB2; 0.378 with Fyn; 0.443 in the data set with MERTK; 0.375 with c-Src; 0.555 with c-Abl (mouse). Further, the phosphorylation enrichment with FGFR3 was 0.394; with Jak2 it was 0.474; with Fes it was 0.803; with Hck, 0.412; with EPHB1 it was 0.425; in the data set with AncSZ it was 0.562. The phosphorylation enrichment in the data set with FGFR1 was 0.429.
For ELQDDYEDTME [SLC4A1_Y8_M11T], the SH2 binding enrichment is 0.582 with c-Src SH2, 0.802 with Grb2 SH2 and 0.516 in the data set with SHP2-C SH2. For the same sequence, the phosphorylation enrichment was 0.805 in the data set with Fer (mouse); 0.836 with EPHB2; 0.77 with Fyn; 0.526 with MERTK; 0.603 in the data set with c-Src; 1 with c-Abl (mouse). Further, the phosphorylation enrichment with FGFR3 came to 0.972; with Jak2, 1.47; with Fes, 1.39; with Hck, 0.649; with EPHB1 it was 0.942; in the data set on AncSZ it was 1.47. In addition, in the data set with FGFR1, the phosphorylation enrichment was 0.649.
With ELTTCYRKKCS [CCBE1_Y70_C75S], the values for the SH2 binding enrichment in the data set with c-Src SH2, with Grb2 SH2 and in the data set with SHP2-C SH2 were 1.04, 1.25 and 0.741, respectively. Also, the phosphorylation enrichment in the data set with Fer (mouse) was 0.362; in the data set with EPHB2, 0.565; in the data set with Fyn, 0.454; with MERTK, 0.467; in the data set on c-Src it was 0.444; in the data set with c-Abl (mouse) it was 0.64. Further, the phosphorylation enrichment stood at 0.501 with FGFR3; 1.12 with Jak2; 0.816 in the data set with Fes; 0.458 in the data set with Hck; 0.431 with EPHB1; 0.764 in the data set on AncSZ. Also, the phosphorylation enrichment in the data set with FGFR1 turned out to be 0.536.
Take ENGPFYASFPP [GDAP2_Y488_T489A_YF]: the figures for the SH2 binding enrichment in the data set with c-Src SH2, with Grb2 SH2 and with SHP2-C SH2 were 0.744, 0.852 and 0.523, respectively. For the same sequence, the phosphorylation enrichment with Fer (mouse) is 7.77; with EPHB2 it was 10.4; with Fyn, 9.94; in the data set with MERTK it was 11.5; in the data set on c-Src it was 7.57; in the data set with c-Abl (mouse), 14.9. In addition, the phosphorylation enrichment was found to be 2.07 in the data set with FGFR3; 0.951 with Jak2; 0.858 in the data set with Fes; 8.77 with Hck; 9.38 with EPHB1; 0.819 in the data set on AncSZ. Moreover, the phosphorylation enrichment in the data set with FGFR1 is 3.05.
For EPNSRYTYKLE [USH2A_Y3745], the results for the SH2 binding enrichment with c-Src SH2, with Grb2 SH2 and in the data set with SHP2-C SH2 were 0.663, 1.02 and 0.768, respectively. Also, the phosphorylation enrichment was found to be 0.27 in the data set on Fer (mouse); 0.46 with EPHB2; 0.492 in the data set with Fyn; 0.384 with MERTK; 0.501 in the data set on c-Src; 0.753 in the data set on c-Abl (mouse). The phosphorylation enrichment in the data set with FGFR3 was 0.534; with Jak2 it was 0.628; with Fes it was 0.895; in the data set with Hck, 0.439; in the data set with EPHB1, 0.537; in the data set on AncSZ it was 0.684. For the same sequence, the phosphorylation enrichment with FGFR1 is 0.438.
For EPSLDYMVTKI [CPS1_Y768], the SH2 binding enrichment was found to be 0.379 with c-Src SH2, 1.05 with Grb2 SH2 and 0.914 with SHP2-C SH2. In addition, the phosphorylation enrichment in the data set with Fer (mouse) amounted to 0.78; with EPHB2 it was 0.727; with Fyn, 0.646; in the data set with MERTK it was 0.469; in the data set on c-Src it was 0.582; in the data set with c-Abl (mouse), 0.606. Besides, the phosphorylation enrichment with FGFR3 stood at 0.797; with Jak2, 1.05; with Fes, 1.14; with Hck it was 0.566; in the data set with EPHB1 it was 0.756; in the data set on AncSZ, 1.22. In addition, the phosphorylation enrichment with FGFR1 was 0.814.
As to EQDRAYLEGTC [HLA-C_Y183_L180D], the SH2 binding enrichment with c-Src SH2 came out at 0.771; with Grb2 SH2 it was 0.939; with SHP2-C SH2, 0.868. The phosphorylation enrichment amounted to 0.499 with Fer (mouse); 0.574 with EPHB2; 0.511 with Fyn; 0.454 with MERTK; 0.519 in the data set with c-Src; 0.84 in the data set with c-Abl (mouse). The phosphorylation enrichment stood at 0.663 with FGFR3; 0.978 with Jak2; 1.14 with Fes; 0.507 in the data set with Hck; 0.549 with EPHB1; 1.1 in the data set with AncSZ. For the same sequence, the phosphorylation enrichment in the data set with FGFR1 amounted to 0.521.
As for EQKKNYNAMKK [SCN5A_Y1495_Y1494N], the SH2 binding enrichment stood at 0.597 in the data set with c-Src SH2, 0.895 with Grb2 SH2 and 0.973 in the data set with SHP2-C SH2. The phosphorylation enrichment with Fer (mouse) is 0.538; in the data set with EPHB2 it was 0.561; with Fyn, 0.394; in the data set with MERTK it was 0.44; in the data set with c-Src, 0.524; in the data set on c-Abl (mouse) it was 1.1. For the same sequence, the phosphorylation enrichment with FGFR3 was found to be 0.826; with Jak2 it was 1.01; with Fes, 1.07; with Hck, 0.489; with EPHB1, 0.427; in the data set on AncSZ, 0.847. For the same sequence, the phosphorylation enrichment with FGFR1 was 0.643.
